Publication PMC4349392

Molecular target: YFP-tagged CaV1.3 IQ domain, prototypic (IQDY) (rat)
Experiment: FRET or BRET

Question: With “CFP-tagged calmodulin, wild type (CFP-CaMWT) (from UniProt P0DP29 1-149) (natural protein)” as the substance, how does the K (a,EFF) (reciprocal D (free) units) read?
Answer: 0.000588

Question: What about the Ka of the same substance?
Answer: 1.8e+07 M⁻¹

Question: And the Kd?
Answer: 55 nM
